Experimental data published in publication PMC10606890, “Studying the Association of TKS4 and CD2AP Scaffold Proteins and Their Implications in the Partial Epithelial–Mesenchymal Transition (EMT) Process” (International Journal of Molecular Sciences, 2023).

B1: TKS4 peptide 188 (15-mer of the PepStar peptide microarray) (peptide, UniProt A1X283 749-763, looked up)
peptide: EAPQQRPVVPPRRPP
notes: contains the motif 755-PVVPPR-760; source: synthetic peptide printed on a glass slide; bought: JPT Peptide Technologies (PepStar microarray)
B2: TKS4 peptide 189 (15-mer of the PepStar peptide microarray) (peptide, UniProt A1X283 753-767, looked up)
peptide: QRPVVPPRRPPPPKK
notes: as for B1

Target: T1, Myc-DDK-tagged human CD2-associated protein (human, UniProt Q9Y5K6 1-639)
T1 construct: human CD2-associated protein (CD2AP), full-length protein; also called Myc-tagged CD2AP; Myc-CD2AP recombinant protein; source: bought: Origene Technologies (RC210191), recombinant protein
T1 sequence (Q9Y5K6 whole entry): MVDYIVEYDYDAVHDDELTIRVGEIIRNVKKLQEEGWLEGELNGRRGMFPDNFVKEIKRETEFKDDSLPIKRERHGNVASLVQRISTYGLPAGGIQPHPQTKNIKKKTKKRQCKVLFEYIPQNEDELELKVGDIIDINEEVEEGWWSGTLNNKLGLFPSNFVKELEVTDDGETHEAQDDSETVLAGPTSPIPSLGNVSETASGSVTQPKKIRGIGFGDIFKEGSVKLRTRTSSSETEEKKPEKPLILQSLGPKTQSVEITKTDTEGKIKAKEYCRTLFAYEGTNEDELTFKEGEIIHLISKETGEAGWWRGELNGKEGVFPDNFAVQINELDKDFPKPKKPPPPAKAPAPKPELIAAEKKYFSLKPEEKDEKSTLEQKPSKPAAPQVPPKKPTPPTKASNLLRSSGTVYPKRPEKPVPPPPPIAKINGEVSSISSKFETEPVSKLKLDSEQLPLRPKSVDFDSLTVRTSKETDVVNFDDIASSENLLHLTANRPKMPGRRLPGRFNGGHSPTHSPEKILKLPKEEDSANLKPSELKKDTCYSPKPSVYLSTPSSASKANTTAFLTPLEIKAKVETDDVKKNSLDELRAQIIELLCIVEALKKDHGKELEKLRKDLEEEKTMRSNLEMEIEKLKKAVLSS
Experiment: peptide or protein array; PepStar microarray of 225 TKS4 15-mers (11 overlapping residues) on a glass slide, three subarrays; recombinant Myc-CD2AP incubated 1 h at 30 °C in SmartBlock solution, TBS washes, detected with Alexa Fluor 488 anti-Myc-tag antibody; threshold 10,000 U
Settings: both partners purified

Row | Binder | binding result
1 | B1 | binds
2 | B2 | binds
